The target of this assay is Phospholipase A1 (PlaA1) from Serratia marcescens, purified (Serratia marcescens). The experiment in a line: SPR; Biacore T200; PlaA1 as ligand (diluted to 20 µg/mL), ∆N27 PlaS as analyte at 0, 0.156, 0.3125, 0.625, 1.25, 2.5 and 5 µM.

“N-terminal truncated PlaS (∆N27 PlaS) from Serratia marcescens, purified (domain or fragment)” registered a dissociation constant (Kd) of 8.49 nM, an off-rate constant (koff) of 1.26e-05 s⁻¹ and an association rate constant (kon) of 1480 M⁻¹ s⁻¹.

By Kd is commonly meant the free concentration of one partner at which half of the binding sites on the other are occupied at equilibrium, for simple one-to-one binding. A low value points to a tighter complex. Usually koff stands for a measure of how fast the partners let go of each other. Higher therefore signals a short-lived complex. One may read the kon as a measure of how fast the partners come together. Read a high kon as faster complex formation.

The values above are taken from PMC11199421.
